Target: PLC-γ1 (UniProt Q62077)
Experiment: IP of PLC-γ1, blot for EAT-2
Conditions: reference: wild type EGFP-EAT-2; sites Y120,Y127

In the case of “EAT-2 (from UniProt O35324) Y120F + Y127F double mutant (FF)”, the “binding against the reference” value is reported as “lost”.
